Experimental data taken from patent US20170298139A1 (OPI VI IP HOLDCO, published 2017).

B1: SBT-040-WT-ATAC11 (antibody, human IgG1, kappa)
heavy: not shown
light: DIQMTQSPSSVSASVGDRVTITCRASQGIYSWLAWYQQKPGKAPNLLIYTASTLQSGVPSRFSGSGSGTDFTLTISSLQPEDFATYYCQQANIFPLTFGGGTKVEIKRTVAAPSVFIFPPSDEQLKSGTASVVCLLNNFYPREAKVQWKVDNALQSGNSQESVTEQDSKDSTYSLSSTLTLSKADYEKHKVYACEVTHQGLSSPVTKSFNRGEC
modifications: ATAC11 on reduced cysteines; sites not stated (heavy or light chain); ATAC11 (maleimide-PEG4 linker with immune-stimulatory compound) on reduced cysteines; sites not stated (heavy or light chain); DAR 4.5
B2: SBT-040-WT-ATAC22 (antibody, human IgG1, kappa)
heavy: not shown
light: B1 light
modifications: ATAC22 on reduced cysteines; sites not stated (heavy or light chain); ATAC22 (maleimidocaproyl-Val-Ala-PAB linker with immune-stimulatory compound) on reduced cysteines; sites not stated (heavy or light chain); DAR 4.6
B3: SBT-040-WT-ATAC4 (antibody, human IgG1, kappa)
heavy: not shown
light: B1 light
modifications: ATAC4 on lysines; sites not stated (heavy or light chain); ATAC4 (PEG linker with activated ester and immune-stimulatory compound) on lysines; sites not stated (heavy or light chain); DAR 4.6
notes: also called SBT-040-G1-ATAC4
B4: SBT-040-G2-ATAC4 (antibody, human IgG2, kappa)
heavy: not shown
light: B1 light
modifications: ATAC4 on lysines; sites not stated (heavy or light chain); ATAC4 (PEG linker with activated ester and immune-stimulatory compound) on lysines; sites not stated (heavy or light chain); DAR 2.9
B5: SBT-040-WT-ATAC3 (antibody, human IgG1, kappa)
heavy: not shown
light: B1 light
modifications: ATAC3 on lysines; sites not stated (heavy or light chain); ATAC3 (PEG linker with activated ester and immune-stimulatory compound) on lysines; sites not stated (heavy or light chain); DAR 5.4
notes: also called SBT-040-G1-ATAC3
B6: SBT-040-G2-ATAC22 (antibody, human IgG2, kappa)
heavy: not shown
light: B1 light
modifications: ATAC22 on reduced cysteines; sites not stated (heavy or light chain); ATAC22 (maleimidocaproyl-Val-Ala-PAB linker with immune-stimulatory compound) on reduced cysteines; sites not stated (heavy or light chain); DAR 4.1
B7: SBT-040-G2 (antibody, human IgG2, kappa)
heavy: not shown
light: B1 light
notes: also called SBT-040-G2WT
B8: SBT-040-G2-ATAC11 (antibody, human IgG2, kappa)
heavy: not shown
light: B1 light
modifications: ATAC11 on reduced cysteines; sites not stated (heavy or light chain); ATAC11 (maleimide-PEG4 linker with immune-stimulatory compound) on reduced cysteines; sites not stated (heavy or light chain); DAR 4.0
B9: SBT-040-G2-ATAC3 (antibody, human IgG2, kappa)
heavy: not shown
light: B1 light
modifications: ATAC3 on lysines; sites not stated (heavy or light chain); ATAC3 (PEG linker with activated ester and immune-stimulatory compound) on lysines; sites not stated (heavy or light chain); DAR 3.3
B10: SBT-040-WT antibody (antibody, human IgG1, kappa)
heavy: not shown
light: B1 light
notes: also called SBT-040-G1
B11: SBT-040-VLPLL-ATAC22 (antibody, human IgG1, kappa)
heavy: not shown
light: B1 light
modifications: ATAC22 on reduced cysteines; sites not stated (heavy or light chain); ATAC22 (maleimidocaproyl-Val-Ala-PAB linker with immune-stimulatory compound) on reduced cysteines; sites not stated (heavy or light chain); DAR 3.9
B12: SBT-040-AAA-ATAC11 (antibody, human IgG1, kappa)
heavy: not shown
light: B1 light
modifications: ATAC11 on reduced cysteines; sites not stated (heavy or light chain); ATAC11 (maleimide-PEG4 linker with immune-stimulatory compound) on reduced cysteines; sites not stated (heavy or light chain); DAR 2.9
B13: SBT-040-AAA-ATAC22 (antibody, human IgG1, kappa)
heavy: not shown
light: B1 light
modifications: ATAC22 on reduced cysteines; sites not stated (heavy or light chain); ATAC22 (maleimidocaproyl-Val-Ala-PAB linker with immune-stimulatory compound) on reduced cysteines; sites not stated (heavy or light chain); DAR 4.1
B14: SBT-040-VLPLL-ATAC11 (antibody, human IgG1, kappa)
heavy: not shown
light: B1 light
modifications: ATAC11 on reduced cysteines; sites not stated (heavy or light chain); ATAC11 (maleimide-PEG4 linker with immune-stimulatory compound) on reduced cysteines; sites not stated (heavy or light chain); DAR 2.9

Tests used:
[1] = target: T1, human FcγRIIIB (human, UniProt O75015 17-200); assay: BLI (Octet Red 96), FcγR on anti-his tag sensor, antibody as analyte, avidity fit
T1 construct: also called CD16b
T1 sequence (O75015 17-200 limits assumed): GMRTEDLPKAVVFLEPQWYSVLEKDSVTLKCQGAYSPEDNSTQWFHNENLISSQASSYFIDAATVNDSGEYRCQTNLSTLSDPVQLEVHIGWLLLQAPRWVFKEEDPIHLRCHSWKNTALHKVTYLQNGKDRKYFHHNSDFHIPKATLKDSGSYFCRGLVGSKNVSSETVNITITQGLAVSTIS
Experimental: For human FcγRIIB/C, FcγRIIIA F158, FcγRIIIA V158 and FcγRIIIB interaction studies, the proteins were immobilized on anti-his tag biosensors and incubated with varying concentration of unconjugated anti-CD40 antibodies or anti-CD40 antibody immune-stimulatory compound conjugates ranging from 0.04 μM to 8 μM. […] The experiment comprised of 5 steps: (1) baseline acquisition (60 s); (2) anti-CD40 antibodies or anti-CD40 antibody immune-stimulatory compound conjugates loading onto […] (120 s); (3) second baseline acquisition (60 s); (4) association of interacting protein for kₒₙ measurement (120 s); (5) dissociation of interacting FcγR for koff measurement (300 s). The interacting anti-CD40 antibodies or anti-CD40 antibody immune-stimulatory compound conjugates were used at 4 concentrations of 2 fold concentration series. Data were analyzed using Octet Data Analysis Software 9.0 (ForteBio) and fitted to the avidity binding model. Equilibrium dissociation constants (KD) were calculated by the […].

[2] = target: T2, Rhesus CD40 ECD monomer (rhesus, UniProt F6SNI1 21-193); assay: BLI (Octet Red 96), antibody on anti-human Fc sensor, monomeric CD40 ECD as analyte, 1:1 fit
T2 construct: Recombinant monomeric CD40 ECD used as analyte; also called monomeric rhesus CD40
T2 sequence (F6SNI1 entry or part of it limits assumed): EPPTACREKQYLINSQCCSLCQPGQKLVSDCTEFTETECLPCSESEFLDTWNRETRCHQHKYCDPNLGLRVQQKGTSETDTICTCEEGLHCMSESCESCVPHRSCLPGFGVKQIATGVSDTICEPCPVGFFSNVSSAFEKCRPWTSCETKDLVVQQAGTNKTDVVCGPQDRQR
Experimental: (§1) Analysis of CD40 ECD interaction was performed using Octet Red 96 instrument (ForteBio). The Octet systems use propriety BLI to analyze biomolecular interaction. […] The experiments were comprised of 5 steps: (1) baseline acquisition (60 s); (2) antibodies and antibody immune-stimulatory compound conjugates loading onto anti-human Fc biosensor (120 s); (3) second baseline acquisition (60 s); (4) association of interacting monomeric CD40 ECD protein for kₒₙ measurement (120 s); (5) Dissociation of interacting monomeric CD40 ECD for koff measurement (360 s). The interacting monomeric CD40 ECD were used at 5-6 concentrations of 3-fold concentration series. Data were analyzed using Octet Data Analysis Sofware 9.0 (ForteBio) and fitted to the 1:1 binding model. Equilibrium dissociation constants (KD) were calculated by the […].

[3] = target: T3, Human CD40 ECD monomer (human, UniProt P25942 21-193); assay: as above
T3 construct: extracellular domain; Recombinant monomeric CD40 ECD used as analyte; also called monomeric human CD40; CD40 Extracellular Domain (ECD)
T3 sequence (P25942 21-193): as the sequence (F6SNI1 entry or part of it limits assumed) above, with S43G, R56H, L89W, M92T, S95A, P101L, L106S, R142H, Q172L counted along it
Experimental: as §1

[4] = target: T4, human FcγRI (human, UniProt P12314 16-288, limits assumed); assay: BLI (Octet Red 96), antibody on anti-human Fc sensor, monomeric FcγR as analyte
T4 construct: Monomeric FcγR used as analyte in solution; also called CD64
T4 sequence (P12314 16-288 limits assumed): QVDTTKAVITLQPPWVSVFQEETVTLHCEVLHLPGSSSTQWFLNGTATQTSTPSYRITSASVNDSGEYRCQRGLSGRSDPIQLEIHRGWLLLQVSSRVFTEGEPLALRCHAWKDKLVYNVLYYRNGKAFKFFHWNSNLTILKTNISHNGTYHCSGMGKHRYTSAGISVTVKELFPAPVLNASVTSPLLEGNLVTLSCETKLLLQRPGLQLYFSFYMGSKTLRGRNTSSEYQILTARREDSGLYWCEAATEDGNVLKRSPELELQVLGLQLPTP
Experimental: Human FcγR interaction analysis was also performed using Octet Red 96 instrument. […] The experiments were comprised of 5 steps: (1) baseline acquisition (60 s); (2) anti-CD40 antibodies or anti-CD40 antibody immune-stimulatory compound conjugates loading onto anti-human Fc biosensor (120 s); (3) second baseline acquisition (60 s); (4) association of interacting protein for kₒₙ measurement (120 s); (5) dissociation of interacting FcγR for koff measurement (300 s). The interacting monomeric FcγR were used at 5-6 concentrations of 3-fold concentration series. Data were analyzed using Octet Data Analysis Software 9.0 (ForteBio) and fitted to the 1:1 binding model. Equilibrium dissociation constants (KD) were calculated by the […].

| Binder | Kd [1] [µM] | Kd [2] [nM] | Kd [3] [nM] | binding result [4] |
| --- | --- | --- | --- | --- |
| B1 | 5 | 13.5 |  |  |
| B2 | 2.71 | 13.6 | 8 |  |
| B3 | 3.24 | 12.9 | 9.3 |  |
| B4 |  | 13.6 | 8.7 | no binding (tested: 1.2 nM to 1 µM FcγR) |
| B5 | 1.5 | 13.1 | 9 |  |
| B6 |  | 15.2 | 7.2 | no binding (tested: 1.2 nM to 1 µM FcγR) |
| B7 |  | 12.4 | 7.7 | no binding (tested: 1.2 nM to 1 µM FcγR) |
| B8 |  | 14 | 7.4 | no binding (tested: 1.2 nM to 1 µM FcγR) |
| B9 | 3.93 | 11.5 | 7.3 | no binding (tested: 1.2 nM to 1 µM FcγR) |
| B10 | 3.6 | 14 |  |  |
| B11 |  |  | 7.5 |  |
| B12 | 3.83 |  |  |  |
| B13 |  |  | 5 |  |
| B14 |  |  | 7.6 |  |
